B1: CPEB3 Ribozyme (parent)
chain: UAACAGGGGGCCACAGCAGAAGCGUUCACGUCGCAGCCCCUGUCAGAUUCUGGUGAAUCUGCGAAUUCUGCUGUAUAUCUC

Variants of: B1
Experiment: self-cleavage, relative activity (ratio to wild type); higher = more cleavage; in vitro, sequencing
How it was run: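 After error-prone PCR and barcoding, CPEB3 ribozyme mutant libraries were transcribed with T7 RNA polymerase at 37°C for 5 hours, then given 15 min with DNase I before an EDTA stop, and they cleaved during both steps. Reverse transcription with template switching preceded Illumina sequencing. Relative activity divides a variant's cleaved/total read fraction by the unmutated ribozyme's. At least 5 reads were required per variant, and three batches were averaged.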

Row | Variant | self-cleavage
1 | UAACAGGGGGCCACAGCAGAUGCGUUCACGUCACAGCCCCUGUCAGAUUCUGGUGAAUCUGCGAAUUCUGCUGUAUAUCUC | 0.09
2 | UAACAGGGGGCCACAGCAGAUGCGUUCACGUCGCAGCCCCUCUCAGAUUCUGGUGAAUCUGCGAAUUCUGCUGUAUAUCUC | 0.29
3 | UAACAGGGGGCCACAGCAGAUGCGUUCACGUCGCAGCCCCUGUCAGAUUCUAGUGAAUCUGCGAAUUCUGCUGUAUAUCUC | 0.33
4 | UAACAGGGGGCCACAGCAGAUGCGUUCACGUCGCAGCCCCUGUCAGAUUCUGAUGAAUCUGCGAAUUCUGCUGUAUAUCUC | 0.29
5 | UAACAGGGGGCCACAGCAGAUGCGUUCACGUCGCAGCCCCUGUCAGAUUCUGGUGAAUCUACGAAUUCUGCUGUAUAUCUC | 0.34
6 | UAACAGGGGGCCACAGCAGAUGCGUUCACGUCGCAGCCCCUGUCAGAUUCUGGUGAAUCUGCAAAUUCUGCUGUAUAUCUC | 0.5
7 | UAACAGGGGGCCACAGCAGAUGCGUUCACGUCGCAGCCCCUGUCAGAUUCUGGUGAAUCUGCCAAUUCUGCUGUAUAUCUC | 0.28
8 | UAACAGGGGGCCACAGCAGAUGCGUUCACGUCGCAGCCCCUGUCAGAUUCUGGUGAAUCUGCUAAUUCUGCUGUAUAUCUC | 0.28
9 | UAACAGGGGGCCACAGCAGAUGCGUUCACGUCGCAGCCCCUGUCAGAUUCUGGUGAAUCUGCGAAUUCUCCUGUAUAUCUC | 0.05
10 | UAACAGGGGGCCACAGCAGAUGCGUUCACGUCGCAGCCCCUGUCAGAUUCUGGUGAAUCUGCGAAUUCUGCUAUAUAUCUC | 0.88
11 | UAACAGGGGGCCACAGCAGAUGCGAUCACGUCGCAGCCCCUGUCAGAUUCUGGUGAAUCUGCGAAUUCUGCUGUAUAUCUC | 0.22
12 | UAACAGGGGGCCACAGCAGAUGCGCUCACGUCGCAGCCCCUGUCAGAUUCUGGUGAAUCUGCGAAUUCUGCUGUAUAUCUC | 0.29
13 | UAACAGGGGGCCACAGCAGAUGCGUACACGUCGCAGCCCCUGUCAGAUUCUGGUGAAUCUGCGAAUUCUGCUGUAUAUCUC | 0.35
14 | UAACAGGGGGCCACAGCAGAUGCGUCCACGUCGCAGCCCCUGUCAGAUUCUGGUGAAUCUGCGAAUUCUGCUGUAUAUCUC | 0.29
15 | UAACAGGGGGCCACAGCAGAUGCGUUCACGACGCAGCCCCUGUCAGAUUCUGGUGAAUCUGCGAAUUCUGCUGUAUAUCUC | 0.13
16 | UAACAGGGGGCCACAGCAGAUGCGUUCACGCCGCAGCCCCUGUCAGAUUCUGGUGAAUCUGCGAAUUCUGCUGUAUAUCUC | 0.3
17 | UAACAGGGGGCCACAGCAGAUGCGUUCACGGCGCAGCCCCUGUCAGAUUCUGGUGAAUCUGCGAAUUCUGCUGUAUAUCUC | 0.13
18 | UAACAGGGGGCCACAGCAGAUGCGUUCACGUCGCAGCCCCAGUCAGAUUCUGGUGAAUCUGCGAAUUCUGCUGUAUAUCUC | 0.26
19 | UAACAGGGGGCCACAGCAGAUGCGUUCACGUCGCAGCCCCCGUCAGAUUCUGGUGAAUCUGCGAAUUCUGCUGUAUAUCUC | 0.34
20 | UAACAGGGGGCCACAGCAGAUGCGUUCACGUCGCAGCCCCUGACAGAUUCUGGUGAAUCUGCGAAUUCUGCUGUAUAUCUC | 0.5
21 | UAACAGGGGGCCACAGCAGAUGCGUUCACGUCGCAGCCCCUGCCAGAUUCUGGUGAAUCUGCGAAUUCUGCUGUAUAUCUC | 0.26
22 | UAACAGGGGGCCACAGCAGAUGCGUUCACGUCGCAGCCCCUGUCAGACUCUGGUGAAUCUGCGAAUUCUGCUGUAUAUCUC | 0.27
23 | UAACAGGGGGCCACAGCAGAUGCGUUCACGUCGCAGCCCCUGUCAGAUCCUGGUGAAUCUGCGAAUUCUGCUGUAUAUCUC | 0.22

Row | Variant | self-cleavage
24 | UAACAGGGGGCCACAGCAGAUGCGUUCACGUCGCAGCCCCUGUCAGAUUCAGGUGAAUCUGCGAAUUCUGCUGUAUAUCUC | 0.43
25 | UAACAGGGGGCCACAGCAGAUGCGUUCACGUCGCAGCCCCUGUCAGAUUCCGGUGAAUCUGCGAAUUCUGCUGUAUAUCUC | 0.34
26 | UAACAGGGGGCCACAGCAGAUGCGUUCACGUCGCAGCCCCUGUCAGAUUCUGGAGAAUCUGCGAAUUCUGCUGUAUAUCUC | 0.29
27 | UAACAGGGGGCCACAGCAGAUGCGUUCACGUCGCAGCCCCUGUCAGAUUCUGGCGAAUCUGCGAAUUCUGCUGUAUAUCUC | 0.29
28 | UAACAGGGGGCCACAGCAGAUGCGUUCACGUCGCAGCCCCUGUCAGAUUCUGGGGAAUCUGCGAAUUCUGCUGUAUAUCUC | 0.26
29 | UAACAGGGGGCCACAGCAGAUGCGUUCACGUCGCAGCCCCUGUCAGAUUCUGGUGAAACUGCGAAUUCUGCUGUAUAUCUC | 0.37
30 | UAACAGGGGGCCACAGCAGAUGCGUUCACGUCGCAGCCCCUGUCAGAUUCUGGUGAACCUGCGAAUUCUGCUGUAUAUCUC | 0.12
31 | UAACAGGGGGCCACAGCAGAUGCGUUCACGUCGCAGCCCCUGUCAGAUUCUGGUGAAUCAGCGAAUUCUGCUGUAUAUCUC | 0.3
32 | UAACAGGGGGCCACAGCAGAUGCGUUCACGUCGCAGCCCCUGUCAGAUUCUGGUGAAUCCGCGAAUUCUGCUGUAUAUCUC | 0.2
33 | UAACAGGGGGCCACAGCAGAUGCGUUCACGUCGCAGCCCCUGUCAGAUUCUGGUGAAUCGGCGAAUUCUGCUGUAUAUCUC | 0.17
34 | UAACAGGGGGCCACAGCAGAUGCGUUCACGUCGCAGCCCCUGUCAGAUUCUGGUGAAUCUGCGAAAUCUGCUGUAUAUCUC | 1.12
35 | UAACAGGGGGCCACAGCAGAUGCGUUCACGUCGCAGCCCCUGUCAGAUUCUGGUGAAUCUGCGAACUCUGCUGUAUAUCUC | 0.33
36 | UAACAGGGGGCCACAGCAGAUGCGUUCACGUCGCAGCCCCUGUCAGAUUCUGGUGAAUCUGCGAAUACUGCUGUAUAUCUC | 0.19
37 | UAACAGGGGGCCACAGCAGAUGCGUUCACGUCGCAGCCCCUGUCAGAUUCUGGUGAAUCUGCGAAUCCUGCUGUAUAUCUC | 0.2
38 | UAACAGGGGGCCACAGCAGAUGCGUUCACGUCGCAGCCCCUGUCAGAUUCUGGUGAAUCUGCGAAUUCCGCUGUAUAUCUC | 0.26
39 | UAACAGGGGGCCACAGCAGAUGCGUUCACGUCGCAGCCCCUGUCAGAUUCUGGUGAAUCUGCGAAUUCUGCAGUAUAUCUC | 0.26
40 | UAACAGGGGGCCACAGCAGAUGCGUUCACGUCGCAGCCCCUGUCAGAUUCUGGUGAAUCUGCGAAUUCUGCCGUAUAUCUC | 0.53
41 | UAACAGGGGGCCACAGCAGAUGCGUUCACGUCGCAGCCCCUGUCAGAUUCUGGUGAAUCUGCGAAUUCUGCGGUAUAUCUC | 0.17
42 | UAACAGGGGGCCACAGCAGAUGCGUUCACGUCGCAGCCCCUGUCAGAUUCUGGUGAAUCUGCGAAUUCUGCUGAAUAUCUC | 0.76
43 | UAACAGGGGGCCACAGCAGAUGCGUUCACGUCGCAGCCCCUGUCAGAUUCUGGUGAAUCUGCGAAUUCUGCUGCAUAUCUC | 0.76
44 | UAACAGGGGGCCACAGCAGAUGCGUUCACGUCGCAGCCCCUGUCAGAUUCUGGUGAAUCUGCGAAUUCUGCUGUAAAUCUC | 0.45
45 | UAACAGGGGGCCACAGCAGAUGCGUUCACGUCGCAGCCCCUGUCAGAUUCUGGUGAAUCUGCGAAUUCUGCUGUACAUCUC | 0.27
46 | UAACAGGGGGCCACAGCAGAUGCGUUCACGUCGCAGCCCCUGUCAGAUUCUGGUGAAUCUGCGAAUUCUGCUGUAUAACUC | 0.38

Row | Variant | self-cleavage
47 | UAACAGGGGGCCACAGCAGAUGCGUUCACGUCGCAGCCCCUGUCAGAUUCUGGUGAAUCUGCGAAUUCUGCUGUAUACCUC | 0.25
48 | UAACAGGGGGCCACAGCAGAUGCGUUCACGUCGCAGCCCCUGUCAGAUUCUGGUGAAUCUGCGAAUUCUGCUGUAUAUCAC | 0.44
49 | UAACAGGGGGCCACAGCAGAUGCGUUCACGUCGCAGCCCCUGUCAGAUUCUGGUGAAUCUGCGAAUUCUGCUGUAUAUCCC | 0.53
50 | UAACAGGGGGCCACAGCAGAAACGUUCACGUCGCAGCCCCUGUCAGAUUCUGGUGAAUCUGCGAAUUCUGCUGUAUAUCUC | 0.29
51 | UAACAGGGGGCCACAGCAGAAACGUUCCCGUCGCAGCCCCUGUCAGAUUCUGGUGAAUCUGCGAAUUCUGCUGUAUAUCUC | 0.21
52 | UAACAGGGGGCCACAGCAGAAACGUUCGCGUCGCAGCCCCUGUCAGAUUCUGGUGAAUCUGCGAAUUCUGCUGUAUAUCUC | 0.4
53 | UAACAGGGGGCCACAGCAGAAACGUUCUCGUCGCAGCCCCUGUCAGAUUCUGGUGAAUCUGCGAAUUCUGCUGUAUAUCUC | 0.12
54 | UAACAGGGGGCCACAGCAGAAACGUUCACGUCGCGGCCCCUGUCAGAUUCUGGUGAAUCUGCGAAUUCUGCUGUAUAUCUC | 0.68
55 | UAACAGGGGGCCACAGCAGAAACGUUCACGUCGCUGCCCCUGUCAGAUUCUGGUGAAUCUGCGAAUUCUGCUGUAUAUCUC | 0.19
56 | UAACAGGGGGCCACAGCAGAAACGUUCACGUCGCAGCCCCUGUCGGAUUCUGGUGAAUCUGCGAAUUCUGCUGUAUAUCUC | 0.14
57 | UAACAGGGGGCCACAGCAGAAACGUUCACGUCGCAGCCCCUGUCUGAUUCUGGUGAAUCUGCGAAUUCUGCUGUAUAUCUC | 0.11
58 | UAACAGGGGGCCACAGCAGAAACGUUCACGUCGCAGCCCCUGUCAGGUUCUGGUGAAUCUGCGAAUUCUGCUGUAUAUCUC | 0.48
59 | UAACAGGGGGCCACAGCAGAAACGUUCACGUCGCAGCCCCUGUCAGAUUCUGGUGGAUCUGCGAAUUCUGCUGUAUAUCUC | 0.17
60 | UAACAGGGGGCCACAGCAGAAACGUUCACGUCGCAGCCCCUGUCAGAUUCUGGUGAGUCUGCGAAUUCUGCUGUAUAUCUC | 0.35
61 | UAACAGGGGGCCACAGCAGAAACGUUCACGUCGCAGCCCCUGUCAGAUUCUGGUGAAUCUGCGGAUUCUGCUGUAUAUCUC | 0.24
62 | UAACAGGGGGCCACAGCAGAAACGUUCACGUCGCAGCCCCUGUCAGAUUCUGGUGAAUCUGCGUAUUCUGCUGUAUAUCUC | 0.32
63 | UAACAGGGGGCCACAGCAGAAACGUUCACGUCGCAGCCCCUGUCAGAUUCUGGUGAAUCUGCGAGUUCUGCUGUAUAUCUC | 0.23
64 | UAACAGGGGGCCACAGCAGAAACGUUCACGUCGCAGCCCCUGUCAGAUUCUGGUGAAUCUGCGAUUUCUGCUGUAUAUCUC | 0.08
65 | UAACAGGGGGCCACAGCAGAAACGUUCACGUCGCAGCCCCUGUCAGAUUCUGGUGAAUCUGCGAAUUCUGCUGUUUAUCUC | 0.37
66 | UAACAGGGGGCCACAGCAGAAACGUUCACGUCGCAGCCCCUGUCAGAUUCUGGUGAAUCUGCGAAUUCUGCUGUAUUUCUC | 0.1
67 | UAACAGGGGGCCACAGCAGAAACGUUCACGUCGCAGACCCUGUCAGAUUCUGGUGAAUCUGCGAAUUCUGCUGUAUAUCUC | 0.09
68 | UAACAGGGGGCCACAGCAGAAACGUUCACGUCGCAGCUCCUGUCAGAUUCUGGUGAAUCUGCGAAUUCUGCUGUAUAUCUC | 0.17
